Results on six substances are retold here after the supplement of paper PMC5998384.

Data set [1] deals with HeLa Kyoto. Briefly: solubility change mitosis vs G1/S (difference of NP-40 vs SDS log2 ratios) (log2 ratio difference); higher = more soluble in mitosis.
Data set [2] deals with HeLa Kyoto. Briefly: thermal stability score vs G1/S (z-score of summed log2 fold changes over temperatures); higher = more thermally stable than in G1/S.
Data set [3] relates to HeLa Kyoto. In words: melting temperature (median over replicates), in situ; higher = more thermally stable.
The test system of data set [4] is HeLa Kyoto. Briefly: solubility in G1/S (NP-40 vs SDS abundance) (log2 ratio); higher = more soluble. Conditions: cell cycle stage: G1/S.
Where [5] appears, read: cell cycle stage: early G1 (4.5 h after nocodazole release).
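Throughout, for melting temperature (median over replicates), in situ: HeLa Kyoto cells synchronized by double thymidine or nocodazole block, proteins quantified by TMT10plex mass spectrometry, three independent biological replicates.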
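Throughout, for solubility change mitosis vs G1/S (difference of NP-40 vs SDS log2 ratios): synchronized HeLa Kyoto cells (double thymidine block for G1/S, nocodazole release for mitosis), protein amounts in NP-40 versus SDS lysates quantified by mass spectrometry, three biological replicates.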
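Throughout, for solubility in G1/S (NP-40 vs SDS abundance): HeLa Kyoto cells arrested at G1/S by double thymidine block, proteins quantified by TMT10plex mass spectrometry in mild NP-40 versus SDS extracts, three biological replicates.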
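Throughout, for thermal stability score vs G1/S (z-score of summed log2 fold changes over temperatures): synchronized HeLa Kyoto cells, proteins quantified by TMT10plex mass spectrometry, three biological replicates, mitosis taken 0.5 h after nocodazole release, G1/S directly after double thymidine block.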

Chain of PPP2R5E (chain, as listed by the source): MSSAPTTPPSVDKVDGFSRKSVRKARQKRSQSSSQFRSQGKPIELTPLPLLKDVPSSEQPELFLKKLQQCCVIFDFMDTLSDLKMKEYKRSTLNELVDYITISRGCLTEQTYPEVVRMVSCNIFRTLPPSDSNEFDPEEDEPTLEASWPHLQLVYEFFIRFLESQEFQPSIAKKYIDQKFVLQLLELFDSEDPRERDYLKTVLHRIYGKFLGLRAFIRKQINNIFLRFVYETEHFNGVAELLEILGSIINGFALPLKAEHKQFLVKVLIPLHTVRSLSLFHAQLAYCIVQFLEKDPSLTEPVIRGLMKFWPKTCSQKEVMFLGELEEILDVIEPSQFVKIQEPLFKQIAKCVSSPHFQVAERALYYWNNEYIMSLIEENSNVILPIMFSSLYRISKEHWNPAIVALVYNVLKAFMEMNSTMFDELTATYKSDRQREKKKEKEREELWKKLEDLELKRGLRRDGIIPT
Chain of ANTXR1 (chain, as listed by the source): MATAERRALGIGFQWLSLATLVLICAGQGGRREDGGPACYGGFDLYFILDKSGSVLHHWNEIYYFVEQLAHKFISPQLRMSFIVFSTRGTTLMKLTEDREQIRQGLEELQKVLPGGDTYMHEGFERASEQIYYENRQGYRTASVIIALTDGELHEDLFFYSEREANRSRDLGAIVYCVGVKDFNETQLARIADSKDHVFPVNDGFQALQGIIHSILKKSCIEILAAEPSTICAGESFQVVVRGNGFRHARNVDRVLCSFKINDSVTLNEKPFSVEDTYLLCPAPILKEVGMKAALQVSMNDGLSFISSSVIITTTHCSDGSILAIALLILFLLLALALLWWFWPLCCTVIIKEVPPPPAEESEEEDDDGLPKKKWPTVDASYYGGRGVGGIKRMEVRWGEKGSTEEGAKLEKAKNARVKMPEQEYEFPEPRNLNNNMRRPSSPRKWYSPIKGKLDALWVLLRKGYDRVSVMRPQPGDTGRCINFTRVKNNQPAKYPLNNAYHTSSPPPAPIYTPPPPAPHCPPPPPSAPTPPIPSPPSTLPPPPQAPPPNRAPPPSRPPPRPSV

For “MWSGRKLGSSGGWFLRVLGPGGCNTKAARPLISSAVYVKNQLSGTLQIKPGVFNEYRTIWFKSYRTIFSCLNRIKSFRYPWARLYSTSQTTVDSGEVKTFLALAHKWWDEQGVYAPLHSMNDLRVPFIRDNLLKTIPNHQPGKPLLGMKILDVGCGGGLLTEPLGRLGASVIGIDPVDENIKTAQCHKSFDPVLDKRIEYRVCSLEEIVEETAETFDAVVASEVVEHVIDLETFLQCCCQVLKPGGSLFITTINKTQLSYALGIVFSEQIASIVPKGTHTWEKFVSPETLESILESNGLSVQTVVGMLYNPFSGYWHWSENTSLNYAAYAVKSRVQEHPASAEFVLKGETEELQANACTNPAVHEKLKK [COQ3]”, the “solubility change mitosis (log2)” value in data set [1] was -0.0133. Further, the thermal stability score in data set [2] (setting [5]) is -0.812; in data set [2] (cell cycle stage: mitosis) it was -0.988. Also, the melting temperature in data set [3] (cell cycle stage: G1/S) worked out at 55.3 °C; in data set [3] (cell cycle stage: mitosis) it was 56.3 °C. Besides, in data set [4], the “solubility in G1/S (log2)” value was determined as 0.345.
“MGTVHARSLEPLPSSGPDFGGLGEEAEFVEVEPEAKQEILENKDVVVQHVHFDGLGRTKDDIIICEIGDVFKAKNLIEVMRKSHEAREKLLRLGIFRQVDVLIDTCQGDDALPNGLDVTFEVTELRRLTGSYNTMVGNNEGSMVLGLKLPNLLGRAEKVTFQFSYGTKETSYGLSFFKPRPGNFERNFSVNLYKVTGQFPWSSLRETDRGMSAEYSFPIWKTSHTVKWEGVWRELGCLSRTASFAVRKESGHSLKSSLSHAMVIDSRNSSILPRRGALLKVNQELAGYTGGDVSFIKEDFELQLNKQLIFDSVFSASFWGGMLVPIGDKPSSIADRFYLGGPTSIRGFSMHSIGPQSEGDYLGGEAYWAGGLHLYTPLPFRPGQGGFGELFRTHFFLNAGNLCNLNYGEGPKAHIRKLAECIRWSYGAGIVLRLGNIARLELNYCVPMGVQTGDRICDGVQFGAGIRFL [SAMM50]”: in data set [1], the “solubility change mitosis (log2)” value is -0.0834. Further, the thermal stability score in data set [2] (setting [5]) was -2.61; in data set [2] (cell cycle stage: mitosis), -4.33. Also, the results for the melting temperature in data set [3] (cell cycle stage: G1/S) and in data set [3] (cell cycle stage: mitosis) were 56.1 °C and 54.6 °C, respectively. Moreover, the “solubility in G1/S (log2)” value in data set [4] is -0.348.
Regarding KIAA0930, in data set [1], the “solubility change mitosis (log2)” value was -0.03. The thermal stability score in data set [2] (setting [5]) came out at 0.34; in data set [2] (cell cycle stage: mitosis) it was 0.505. Besides, the melting temperature stood at 52.6 °C in data set [3] (cell cycle stage: G1/S) and 52.3 °C in data set [3] (cell cycle stage: mitosis). Also, in data set [4], the “solubility in G1/S (log2)” value was -0.0317.
On to PPP2R5E, for which, in data set [1], the “solubility change mitosis (log2)” value was -0.171. Further, the thermal stability score in data set [2] (setting [5]) was found to be 0.446; in data set [2] (cell cycle stage: mitosis), 0.409. Further, the values for the melting temperature in data set [3] (cell cycle stage: G1/S) and in data set [3] (cell cycle stage: mitosis) were 49.9 °C and 49.7 °C, respectively. Moreover, the “solubility in G1/S (log2)” value in data set [4] was -0.065.
For “MPKRKAAGQGDMRQEPKRRSARLSAMLVPVTPEVKPKRTSSSRKMKTKSDMMEENIDTSAQAVAETKQEAVVEEDYNENAKNGEAKITEAPASEKEIVEVKEENIEDATEKGGEKKEAVAAEVKNEEEDQKEDEEDQNEEKGEAGKEDKDEKGEEDGKEDKNGNEKGEDAKEKEDGKKGEDGKGNGEDGKEKGEDEKEEEDRKETGDGKENEDGKEKGDKKEGKDVKVKEDEKEREDGKEDEGGNEEEAGKEKEDLKEEEEGKEEDEIKEDDGKKEEPQSIV [HMGN5]”, the “solubility change mitosis (log2)” value in data set [1] was determined as 0.272. Besides, the figures for the thermal stability score in data set [2] (setting [5]) and in data set [2] (cell cycle stage: mitosis) were -0.636 and -5.4, respectively. In addition, the figures for the melting temperature in data set [3] (cell cycle stage: G1/S) and in data set [3] (cell cycle stage: mitosis) were 59.9 °C and 59.8 °C, respectively. The “solubility in G1/S (log2)” value in data set [4] was determined as 0.255.
Regarding ANTXR1, the “solubility change mitosis (log2)” value in data set [1] is 0.0236. Also, the thermal stability score is -1.21 in data set [2] (setting [5]) and -3.82 in data set [2] (cell cycle stage: mitosis). Besides, the melting temperature in data set [3] (cell cycle stage: G1/S) and in data set [3] (cell cycle stage: mitosis) was 55 °C in each case. Also, in data set [4], the “solubility in G1/S (log2)” value came to 0.0506.
